In the supplement of paper PMC7877785:
± gives the uncertainty stated by the source.

Assay: self-splicing fitness, log relative to wild type (ln ratio); higher = more splicing; Tetrahymena group I intron in knt gene, E. coli kanamycin selection, DiMSum; sequences stand for … in CUCUCU…GGAGGGAAAAGUUAUCAGGCAUGCACCUGGUAGCUAGUCUUUAAACCAAUAGAUUGCAUCGGUUUAAAAGGCAAGACCGUCAAAUUGCGGGAAAGGGGUCAACAGCCGUUCAGUACCAAGUCUCAGGGGAAACUUUGAGAUGGCCUUGCAAAGGGUAUGGUAAUAAGCUGACGGACAUGGUCCUAACCACGCAGCCAAGUCCUAAGUCAACAGAUCUUCUGUUGAUAUGGAUGCAGUUCACAGACUAAAUGUCGGUCGGGGAAGAUGUAUUCUUCUCAUAAGAUAUAGUCGGACCUCUCCUUAAUGGGAGCUAGCGGAUGAAGUGAUGCAACACUGGAGCCGCUGGGAACUAAUUUGUAUGCGAAAGUAUAUUGAUUAGUUUUGGAGUACUCGUGGUCG
How it was run: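 The eight P1ex-region nucleotides of an intron in the knt kanamycin-resistance gene on pET-22b(+) were all randomised and the library put into E. coli BL21(DE3). Six replicate transformations were grown overnight at 37°C or 30°C on LB agar with or without 25 μg/mL kanamycin, together with 100 μg/mL carbenicillin, 50 μM IPTG and 0.2% rhamnose. Colonies were pooled and amplicon-sequenced on an Illumina HiSeq 2500. Fitness from DiMSum is the error-weighted combination of wild-type-normalised replicate fold changes, kanamycin over none.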

Sequence | self-splicing fitness (ln) (30 °C) | self-splicing fitness (ln) (37 °C)
AUAGAGCAAUAUUACGCUGA | -1.26 ± 0.15 | -1.03 ± 0.17
UGUCAGCAAUAUUACGGUGG | -2.14 ± 0.099 | -1.32 ± 0.097
AAAGAGCAAUAUUACGGGCG | -2.3 ± 0.14 | -3.1 ± 0.47
AAUCAGCAAUAUUACGGCUG | -2.34 ± 0.15 | -1.87 ± 0.2
CUACAGCAAUAUUACGAUAU | -3.89 ± 0.22 | -1.4 ± 0.22
CACUAGCAAUAUUACGCAAA | -2.95 ± 0.21 | -2.46 ± 0.27
CCAUAGCAAUAUUACGACUG | -0.667 ± 0.071 | -0.0816 ± 0.087
UGAUAGCAAUAUUACGAGCU | -1.44 ± 0.15 | -0.828 ± 0.17
CCAUAGCAAUAUUACGAUCA | -2.94 ± 0.18 | -3.23 ± 0.29
GCAGAGCAAUAUUACGCUUU |  | -3.01 ± 0.27
UCUUAGCAAUAUUACGCGAG | -2.25 ± 0.17 | -2.92 ± 0.28
UGCCAGCAAUAUUACGUGAC | -3.43 ± 0.16 | -3.2 ± 0.22
AAGGAGCAAUAUUACGCUCC |  | -1.7 ± 0.47
UAGCAGCAAUAUUACGAACA | -0.591 ± 0.069 | 0.237 ± 0.081
CAAAAGCAAUAUUACGGCGA | -1.16 ± 0.11 | -0.502 ± 0.098
UUCAAGCAAUAUUACGAAUU | -3.21 ± 0.24 | -1.69 ± 0.27
AAAUAGCAAUAUUACGCUCU | -0.111 ± 0.075 | -0.0401 ± 0.091
CCCUAGCAAUAUUACGAUUU | -3.35 ± 0.17 | -1.91 ± 0.17
CUAUAGCAAUAUUACGAGAU | -3.91 ± 0.42 | 0.449 ± 0.18
ACACAGCAAUAUUACGCGGG | -2.43 ± 0.075 | -1.69 ± 0.091
CACCAGCAAUAUUACGUAUA | -4.42 ± 0.24 | -2.33 ± 0.18
GGACAGCAAUAUUACGUGUC | -3.52 ± 0.28 | -2.68 ± 0.23
AGCGAGCAAUAUUACGGCUC | -3.06 ± 0.34 | -2.06 ± 0.45
GAGCAGCAAUAUUACGUCAC | -3.67 ± 0.18 | -1.3 ± 0.17
CAGUAGCAAUAUUACGAGGA | -3.13 ± 0.24 | -1.77 ± 0.2
GUCUAGCAAUAUUACGAUGU | -1.11 ± 0.074 | 0.257 ± 0.086

Sequence | self-splicing fitness (ln) (30 °C) | self-splicing fitness (ln) (37 °C)
GACCAGCAAUAUUACGUGUA | -0.635 ± 0.06 | 0.255 ± 0.074
GUGAAGCAAUAUUACGCAUA | -0.646 ± 0.15 | -0.0533 ± 0.17
GGAAAGCAAUAUUACGUGGA | -3.49 ± 0.28 | -1.96 ± 0.23
AGAGAGCAAUAUUACGUGUU | -3.21 ± 0.18 | -3.64 ± 0.36
CCCCAGCAAUAUUACGUGUG | -2.66 ± 0.084 | -2.5 ± 0.11
CCAAAGCAAUAUUACGAAUC | -2.82 ± 0.33 | -2.52 ± 0.34
ACGUAGCAAUAUUACGGCAG | -4.15 ± 0.28 | -2.61 ± 0.33
GUAGAGCAAUAUUACGGGGA | -3.54 ± 0.25 | -1.16 ± 0.29
GACCAGCAAUAUUACGCGUC | -4.75 ± 0.38 | -2.54 ± 0.22
AGGGAGCAAUAUUACGAGGA | -3.08 ± 0.33 | 
AAAGAGCAAUAUUACGUGAU | -2.95 ± 0.1 | -1.81 ± 0.12
UUAAAGCAAUAUUACGUGAC | -1.93 ± 0.15 | -1.91 ± 0.18
GUGGAGCAAUAUUACGACAU | -2.402 ± 0.022 | -1.48 ± 0.038
UGCGAGCAAUAUUACGUGAC | -3.73 ± 0.36 | -2.31 ± 0.26
CAUCAGCAAUAUUACGGUAU | -2.95 ± 0.13 | -1.13 ± 0.14
UAUGAGCAAUAUUACGCUGG | -2.71 ± 0.33 | -1.79 ± 0.38
UAAAAGCAAUAUUACGGCAA | -0.166 ± 0.1 | -0.176 ± 0.1
CUUGAGCAAUAUUACGGCCU | -3.92 ± 0.37 | 
AUGAAGCAAUAUUACGAGUA | -2.12 ± 0.079 | -0.848 ± 0.088
GGGAAGCAAUAUUACGAUGU | -1.02 ± 0.083 | -0.0643 ± 0.1
CUACAGCAAUAUUACGAAAG | -1.42 ± 0.078 | -0.755 ± 0.094
CCAGAGCAAUAUUACGUCUA | -2.37 ± 0.19 | -2.23 ± 0.24
GGGCAGCAAUAUUACGUCUU | -0.531 ± 0.081 | 0.0306 ± 0.098
GCAAAGCAAUAUUACGGGUC | -2.55 ± 0.14 | -1.05 ± 0.12
AUGUAGCAAUAUUACGAGAG | -4.62 ± 0.39 | -2.71 ± 0.22
UUUGAGCAAUAUUACGCUCA | -3.33 ± 0.41 | -1.6 ± 0.41

Sequence | self-splicing fitness (ln) (30 °C) | self-splicing fitness (ln) (37 °C)
AGGUAGCAAUAUUACGGCUA | -1.66 ± 0.022 | -1.14 ± 0.037
AUUCAGCAAUAUUACGAGUA | -1.81 ± 0.2 | -1.24 ± 0.18
UCUGAGCAAUAUUACGUCUA | -1.67 ± 0.18 | -2.17 ± 0.26
GUUCAGCAAUAUUACGCUUA | -0.682 ± 0.12 | -0.0254 ± 0.12
GCUCAGCAAUAUUACGCGGU | -3.01 ± 0.15 | -2.22 ± 0.21
GCGCAGCAAUAUUACGCGAG | -1.66 ± 0.08 | -0.987 ± 0.089
UGGGAGCAAUAUUACGCUGG | -1.91 ± 0.29 | -1.55 ± 0.35
UUAAAGCAAUAUUACGGCCU | -0.459 ± 0.12 | 0.567 ± 0.16
CCGAAGCAAUAUUACGUUUG | -4.44 ± 0.22 | -0.979 ± 0.1
CGUGAGCAAUAUUACGUCUA | -2.99 ± 0.37 | -1.59 ± 0.21
GUCGAGCAAUAUUACGCAUC | -2.31 ± 0.26 | -0.574 ± 0.22
UUGCAGCAAUAUUACGGUAG | -0.823 ± 0.057 | -0.064 ± 0.07
CACAAGCAAUAUUACGGCCG | -0.104 ± 0.077 | 0.524 ± 0.1
CUAAAGCAAUAUUACGCAAC | -3.32 ± 0.29 | -3.03 ± 0.38
GAUUAGCAAUAUUACGAAUA | -1.1 ± 0.29 | -0.71 ± 0.26
CCCUAGCAAUAUUACGAAGU | -4.34 ± 0.28 | -2.89 ± 0.27
CCGAAGCAAUAUUACGGGAG | -2.67 ± 0.18 | -2.46 ± 0.23
UUAGAGCAAUAUUACGAAAG | -2.9 ± 0.4 | -0.494 ± 0.35
GGCUAGCAAUAUUACGCAUG | -1.11 ± 0.11 | -1.04 ± 0.11
AUCCAGCAAUAUUACGAAAC | -2.56 ± 0.11 | -1.47 ± 0.16
GGCGAGCAAUAUUACGGCAU | -0.523 ± 0.13 | 0.0629 ± 0.15
UACUAGCAAUAUUACGAGGU | -3.47 ± 0.42 | -2 ± 0.29
CCGUAGCAAUAUUACGCGAG | -3.82 ± 0.24 | -2.76 ± 0.32
CAGCAGCAAUAUUACGCUAC | -3.65 ± 0.38 | -2.81 ± 0.38
CAACAGCAAUAUUACGCCAC | -3.26 ± 0.37 | -2.39 ± 0.31
